Measured values: patent US20260035452A1 (THE UNIVERSITY OF BIRMINGHAM, priority 2022, published 2026)
Marks after values point to notes of the source that are not given here.

Assay: Haematological investigations
Format: in vivo
Conditions: mice, 100 μg/mouse
Method: To assess the neutralising activity of Ab-IPL-IL-17™, CD-1 mice were injected i.p. with 100 μg/mouse of Ab-IPL-IL-17™, MAB421 or secukinumab as positive controls. After 30 min, an i.p. injection of 10 μg/mouse of IL-17A, IL-17F or IL-17A/F heterodimer was administered. After 2 h blood was collected by intracardiac puncture and serum levels of (A) IL-17A, (B) IL-17F or (C) IL-17A/F heterodimer were quantified by Elisa. (C-F) For the evaluation of immunogenic effects CD-1 mice were injected i.p. with 100 μg of IgG1 isotype antibody (vehicle) or IL-17 neutralising antibodies (bimekizumab, secukinumab, MAB421 or Ab-IPL-IL-17™). In the selected time-point (2 h, 24 h, 72 h, 7 days, 14 days and 21 days) total IgG, IgG1, lymphocytes and platelets levels were determined by Elisa and haematological blood count test, respectively. Data are presented as mean±S.D. for n=5 mice per group. Statistical analysis was conducted by one or two-way ANOVA followed by Bonferroni's for multiple comparisons. *P≤0.05, **P≤0.01, ***P≤0.001 vs IL-17 group; ^#P≤0.05, ^##P≤0.01, ^###P≤0.001, ^####P≤0.0001 vs vehicle group.
(§1) Standard laboratory procedures were used for blood sampling and measurements (95). Haematological investigations, for all experimental conditions, including blood count test, leukocyte, and sidereal formula were performed on citrated and not-anticoagulated blood samples, respectively. Serological tests were performed by CELL-DYN Sapphire purchased from Abbott S.R.L. (Milan, Italy). All procedures were conducted under strictly aseptic conditions.
as §1, with “measurements.” for “measurements (95).”

Substance: Bimekizumab: IL-17 neutralising antibody (reference)
- GRA (Granulocytes) (2 h): 0.24 ± 0.11 10^3/μL
- HCT (Hematocrit) (2 h): 29.96 ± 2.29%
- HGB (Hemoglobin) (2 h): 9.88 ± 1.02 g/dL
- MCH (Mean Corpuscular Hemoglobin) (2 h): 16.98 ± 1.38 pg
- MCV (Mean Cell Volume) (2 h): 61.22 ± 5.70 fL
- MHCH (2 h): 30.00 ± 3.06 g/dL
- MID (2 h): 0.36 ± 0.24 10^3/μL
- MPV (Mean Platelet Volume) (2 h): 4.64 ± 0.86 fL
- PCT (Plateletcrit) (2 h): 0.26 ± 0.07%
- PWD (Platelet Distribution Width) (2 h): 16.80 ± 1.42%
- RBC (Red Blood Cells) (2 h): 5.84 ± 1.62 10^6/μL
- RDW (Red blood cells Distribution Width) (2 h): 18.82 ± 1.75%
- WBC (White Blood Cells) (2 h): 3.90 ± 0.91 10^3/μL
- GRA (Granulocytes) (24 h): 0.22 ± 0.16 10^3/μL
- HCT (Hematocrit) (24 h): 29.56 ± 2.16%
- HGB (Hemoglobin) (24 h): 9.08 ± 1.55 g/dL
- MCH (Mean Corpuscular Hemoglobin) (24 h): 18.92 ± 1.42 pg
- MCV (Mean Cell Volume) (24 h): 62.32 ± 10.33 fL
- MHCH (24 h): 30.70 ± 3.18 g/dL
- MID (24 h): 0.42 ± 0.31 10^3/μL
- MPV (Mean Platelet Volume) (24 h): 5.00 ± 1.12 fL
- PCT (Plateletcrit) (24 h): 0.26 ± 0.06%
- PWD (Platelet Distribution Width) (24 h): 16.04 ± 1.30%
- RBC (Red Blood Cells) (24 h): 4.63 ± 0.99 10^6/μL
- RDW (Red blood cells Distribution Width) (24 h): 18.42 ± 1.18%
- WBC (White Blood Cells) (24 h): 4.60 ± 1.70 10^3/μL
- GRA (Granulocytes) (72 h): 0.30 ± 0.10 10^3/μL
- HCT (Hematocrit) (72 h): 22.04 ± 4.37** %
- HGB (Hemoglobin) (72 h): 7.10 ± 1.38* g/dL
- MCH (Mean Corpuscular Hemoglobin) (72 h): 21.46 ± 2.04* pg
- MCV (Mean Cell Volume) (72 h): 80.98 ± 9.17 fL
- MHCH (72 h): 30.62 ± 5.57 g/dL
- MID (72 h): 0.42 ± 0.22 10^3/μL
- MPV (Mean Platelet Volume) (72 h): 7.96 ± 1.95**** fL
- PCT (Plateletcrit) (72 h): 0.17 ± 0.03%
- PWD (Platelet Distribution Width) (72 h): 17.94 ± 2.99%
- RBC (Red Blood Cells) (72 h): 3.79 ± 1.02* 10^6/μL
- RDW (Red blood cells Distribution Width) (72 h): 17.12 ± 2.05%
- WBC (White Blood Cells) (72 h): 4.84 ± 2.49 10^3/μL
- GRA (Granulocytes) (7 d): 0.26 ± 0.11 10^3/μL
- HCT (Hematocrit) (7 d): 22.48 ± 3.74* %
- HGB (Hemoglobin) (7 d): 8.10 ± 1.33 g/dL
- MCH (Mean Corpuscular Hemoglobin) (7 d): 21.22 ± 3.74 pg
- MCV (Mean Cell Volume) (7 d): 72.78 ± 8.77 fL
- MHCH (7 d): 29.36 ± 5.05 g/dL
- MID (7 d): 0.46 ± 0.18 10^3/μL
- MPV (Mean Platelet Volume) (7 d): 6.78 ± 1.09* fL
- PCT (Plateletcrit) (7 d): 0.22 ± 0.07%
- PWD (Platelet Distribution Width) (7 d): 16.04 ± 2.71%
- RBC (Red Blood Cells) (7 d): 4.18 ± 0.93 10^6/μL
- RDW (Red blood cells Distribution Width) (7 d): 18.14 ± 3.00%
- WBC (White Blood Cells) (7 d): 5.08 ± 1.37 10^3/μL
- GRA (Granulocytes) (14 d): 0.20 ± 0.12 10^3/μL
- HCT (Hematocrit) (14 d): 28.36 ± 3.19%
- HGB (Hemoglobin) (14 d): 9.06 ± 1.84 g/dL
- MCH (Mean Corpuscular Hemoglobin) (14 d): 17.48 ± 1.38 pg
- MCV (Mean Cell Volume) (14 d): 61.10 ± 9.83 fL
- MHCH (14 d): 29.96 ± 4.45 g/dL
- MID (14 d): 0.40 ± 0.10 10^3/μL
- MPV (Mean Platelet Volume) (14 d): 5.66 ± 0.92 fL
- PCT (Plateletcrit) (14 d): 0.26 ± 0.05%
- PWD (Platelet Distribution Width) (14 d): 16.02 ± 1.63%
- RBC (Red Blood Cells) (14 d): 5.81 ± 1.41 10^6/μL
- RDW (Red blood cells Distribution Width) (14 d): 18.26 ± 2.28%
- WBC (White Blood Cells) (14 d): 3.00 ± 0.68 10^3/μL
- GRA (Granulocytes) (21 d): 0.22 ± 0.13 10^3/μL
- HCT (Hematocrit) (21 d): 29.20 ± 2.70%
- HGB (Hemoglobin) (21 d): 10.06 ± 1.27 g/dL
- MCH (Mean Corpuscular Hemoglobin) (21 d): 17.96 ± 1.57 pg
- MCV (Mean Cell Volume) (21 d): 62.92 ± 6.53 fL
- MHCH (21 d): 30.50 ± 4.52 g/dL
- MID (21 d): 0.32 ± 0.16 10^3/μL
- MPV (Mean Platelet Volume) (21 d): 5.02 ± 0.76 fL
- PCT (Plateletcrit) (21 d): 0.28 ± 0.03%
- PWD (Platelet Distribution Width) (21 d): 16.24 ± 1.83%
- RBC (Red Blood Cells) (21 d): 6.37 ± 1.11 10^6/μL
- RDW (Red blood cells Distribution Width) (21 d): 18.02 ± 1.34%
- WBC (White Blood Cells) (21 d): 3.32 ± 1.18 10^3/μL
